T1: murine GPRC5D (murine, UniProt Q9JIL6 1-344)
T1 construct: whole, on cells; also called murin GPRC5D
T1 sequence (looked up): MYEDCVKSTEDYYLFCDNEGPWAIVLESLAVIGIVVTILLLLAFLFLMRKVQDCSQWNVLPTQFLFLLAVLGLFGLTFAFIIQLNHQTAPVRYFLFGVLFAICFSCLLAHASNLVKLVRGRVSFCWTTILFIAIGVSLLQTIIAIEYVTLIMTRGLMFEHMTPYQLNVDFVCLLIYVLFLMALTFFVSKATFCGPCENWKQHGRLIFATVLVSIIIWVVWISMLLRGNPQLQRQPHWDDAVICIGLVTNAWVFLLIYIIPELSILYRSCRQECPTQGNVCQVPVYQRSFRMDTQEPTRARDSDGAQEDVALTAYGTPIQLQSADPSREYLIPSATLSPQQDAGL


Experiments:
[1] = molecular target: T2, human GPRC5A (human, UniProt Q8NFJ5 1-357); assay: cell ELISA on stably transfected CHO cells
T2 construct: whole, on cells; also called hu GPCR5A
Method: (§1) Stable transfected CHO clones expressing either human GPRC5D or cynomolgus GPRC5D or murin GPRC5D or human GPRC5A were used to analyze the binding of potential lead candidate antibodies as IgGs. In detail, 10⁴ cells (viability≥98%) were seeded into 384 well-microtiter plates (BD Poly D-Lysin, #356662, volume: 25 μl/well) using fresh culture medium. After overnight incubation at 37° C., 25 μl/well dilutions of antibodies were added (15×1:3 dilutions in 1×PBS, assay conc. starts at 30 μg/ml) to the cells for 2 hours at 4° C. After one washing step using 90 μl/well PBST (10×PBS, Roche, #11666789001+0.1% Tween 20), cells were subsequently fixed by the addition of 50 μl/well 0.05% glutharaldehyde (Sigma Cat. No: G5882 in 1×PBS) for 10 min at room temperature (RT). After three additional washing steps using 90 μl/well PBST, secondary antibodies were added for detection: for human antibodies goat anti-human Ig κ chain antibody HRP conjugate (Millipore #AP502P) diluted 1:2000 in blocking buffer (1×PBS (Roche #11666789001)+2% BSA (Bovine Serum Albumin Fraction V, fatty acid free, Roche, #10735086001)+0.05% Tween 20) was used (25 μl/well). […] After incubation for 1 h at RT and three additional washing steps using 90 μl/well PBST, 25 μl/well TMB substrate was added (Roche order no. 11835033001) for 10 min and color development to final ODs was determined by measurement at 370 nm/492 nm.
(§2) Cynomolgus crossreactivity was also detected for all other antibodies but at lower levels compared to 10B10 and 07A04 (FIG. 9). No significant binding to CHO cells expressing murine GPRC5D and no binding to CHO cells expressing the human version of GPRC5A was detected (FIG. 9).

[2] = molecular target: T1, murine GPRC5D; assay: cell ELISA on stably transfected CHO cells
Method: as §1, §2

T2 sequence (Q8NFJ5 whole entry): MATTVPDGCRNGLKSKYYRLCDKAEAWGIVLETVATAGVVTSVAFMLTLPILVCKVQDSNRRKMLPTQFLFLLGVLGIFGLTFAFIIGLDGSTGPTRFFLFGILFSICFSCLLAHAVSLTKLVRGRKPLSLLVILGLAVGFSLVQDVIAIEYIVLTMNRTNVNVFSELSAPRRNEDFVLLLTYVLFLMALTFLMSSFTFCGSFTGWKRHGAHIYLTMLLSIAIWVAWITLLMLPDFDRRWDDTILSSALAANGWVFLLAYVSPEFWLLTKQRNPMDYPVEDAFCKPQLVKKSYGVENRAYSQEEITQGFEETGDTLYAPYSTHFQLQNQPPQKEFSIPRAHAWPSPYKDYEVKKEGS

Binder	binding result [1]	binding result [2]
07A04 IgG (antibody, V domains shown, also called rat IgG 07A04) VH: QVTLKESGPGILQPSHTLSLTCSFSGFSLSTYGMGVNWIRQPSGKGLEWLASIWWNGNTYNNPSLKSRLTVSKDTSNNQAFLKVTSVDTADTATYYCVHTRGIIRGRGLFFDYWGQGVMVTVSS VL: DVQMTQSPYNLAASPGESVSINCKASKSISKYLAWYQQKPGKANKLLIYDGSTLQSGIPSRFSGSGSGTDFTLTIRSLEPEDFGLYYCQQHNEYPLTFGSGTKLEIKR	no binding (tested: 30 µg/ml top concentration)	no binding (tested: 30 µg/ml top concentration)
10B10 IgG (antibody, V domains shown, also called rat IgG 10B10) VH: EVQLVESGGGLVQPGRSMKLSCAASGFTFTNFYMAWVRQAPTKALEWVASINTGGGYTYYRDSVKGRFTVSRDNTRSTLYLQMDSLRSEETATYYCARHLTYYGRYYYFDYWGQGVMVTVSS VL: DIQLTQSPHSLSASLGETVSIECLASEGISNYLAWFHQKPGKSPQLLIYYASSLQDGVPSRFSGSGSGTQYSLKISNMQPEDEGVYYCQQGYKYPLTFGSGTKLEIK	no binding (tested: 30 µg/ml top concentration)	no binding (tested: 30 µg/ml top concentration)
5F11 IgG (antibody, V domains shown) VH: EVQLVESGGGLVQPGRSLKLSCAASGFSFSNYGMAWVRQAATKGLEWVASISTGGGNTYYRDSVKGRFIVSRDNAKNTQYLQMDSLRSEDTATYYCTRHDRGGLYWGQGVMVTVSS VL: DIVMTQAPLSVSVTPGESASISCRSSKSLLHSNGITYVYWYFQKPGKSPQVLIYRMSNLASGVPDRFSGSGSETDFTLKISRVEAEDVGIYHCGQLLENPYTFGAGTELELK	no binding (tested: 30 µg/ml top concentration)	
5E11 IgG (antibody, V domains shown) VH: ELQLEQSGGGLVQPGGSLTLSCAASGFTFSKYAMAWVRQAPTKGLEWVASISTGGVNTYYRDSVKARFTISRDNAKNTQYLQMDSLRSEDTATYYCATHTGDYFDYWGQGVMVTVSS VL: DIVLTQSPALAVSPGQRATISCRASQSVSISGINLMNWYQQKPGQQPKLLIYHASILASGIPTRFSGSGSGTDFTLTIDPVQADDIATYYCQQTRESPLTFGSGTNLEIK	no binding (tested: 30 µg/ml top concentration)	

Source: patent publication US20210054094A1 (Hoffmann-La Roche, published 2021)
